# Read-outs that look alike come from different tables or passages of the source.
# What was measured:
# [1] = tested on: PC-3-xenograft Balb/c nu/nu mice; assay: Ex vivo biodistribution after SPECT/CT scanning; assay type: in vivo, mouse; conditions: radioactivity, ~3 h p.i.
# Method: (§1) Seven-week-old male Balb/c nu/nu-specific and opportunistic pathogen-free (SOPF) mice (Janvier Labs, Le Genest-Saint-Isle, France) were housed in individually ventilated cages, with 4 mice per cage. Upon arrival, mice were acclimated for 1 week, with access to food and water ad libitum. Mice were subcutaneously inoculated on the right shoulder with PC-3 cells (5 × 10^6 cells suspended in 100 µL of 1/3 Matrigel (Corning Inc., Corning, NY, USA) and 2/3 Hank’s balanced salt solution (Gibco). PC-3 xenografts were allowed to grow for 3 weeks. Tumor sizes were 391 ± 173 mm^3 at the start of the studies. All animal experiments were approved by the Animal Welfare Committee of the Erasmus MC and were conducted in agreement with institutional guidelines (license number: AVD101002017867, 28 September 2017).
# (§2) To determine the biodistribution of the compounds after imaging (~3 h p.i.), blood was collected via cardiac puncture under isoflurane/O2 anesthesia, after which the mice were sacrificed. The tumor and organs of interest (prostate, pancreas, spleen, liver, GI tract (stomach, small intestine, cecum, large intestine), kidneys, lungs, heart, muscle, bone, and brain) were excised, washed in PBS and blotted dry. The stomach, intestines and cecum were emptied of their contents. The tumor was cut in half; one half was fresh-frozen for further analysis and the other half was collected for ex vivo optical imaging and radioactivity measurements. After imaging, the blood, tumor, and relevant organs were weighed and measured in a γ-counter. To determine the total injected radioactivity per animal, samples of the injected solutions were measured as well. The percentage of injected dose per gram (%ID/g) was determined for each tissue sample and corrected for both the injected volume and %ID present at the injection site (the tail). Because the low weight of the prostate limited accurate organ weight measurements, the average prostate weight of all animals was used.
# [2] = Ex vivo biodistribution after SPECT/CT scanning; assay type: in vivo, mouse; conditions: mouse, iv, ~3 h p.i.; for tissue to tissue ratio: male, Balb/c nu/nu, total radioactivity, radioactivity; for tissue uptake at 3 h: PC-3 xenograft mice, i.v.
# Method: as §1, §2
# [3] = blocked with 150 nmol unlabeled NeoB, n = 1
compound,measurement,setting,value
"CC(C)CC(CC(C)C)NC(=O)[C@H](Cc1c[nH]cn1)NC(=O)CNC(=O)[C@@H](NC(=O)[C@H](C)NC(=O)[C@H](Cc1c[nH]c2ccccc12)NC(=O)[C@H](CCC(N)=O)NC(=O)[C@@H](Cc1ccccc1)NC(=O)CCOCCOCCOCCOCCNC(=O)[C@H](CCCCNC(=O)OC1CCCC2C=NN=C(c3ccc(CNC(=O)CCCCC[N+]4=C(/C=C/C=C/C=C5N(C)c6ccc(S(=O)(=O)O)cc6C5(C)C)C(C)(C)c5cc(S(=O)(=O)[O-])ccc54)cc3)C2CC1)NC(=O)CN1CCN(CC(=O)O)CCN(CC(=O)O)CCN(CC(=O)O)CC1)C(C)C (stereo partly drawn) [[^111In]In-15, metal not drawn]",Tumor-to-blood ratio,[1]; [3],0.32
same,Tumor-to-prostate ratio,[1]; [3],3.09
same,Tumor-to-prostate ratio,"[1]; non-blocked, n = 3",2.16 ± 0.46
same,tissue to tissue ratio,"[2]; tumor and blood, non-blocked, n = 3, read-out: Tumor-to-blood ratio",0.38 ± 0.04
same,tissue to tissue ratio,"[2]; tumor and kidney, blocked with 150 nmol unlabeled NeoB, n = 1, read-out: Tumor-to-kidney ratio",0.24
same,tissue to tissue ratio,"[2]; tumor and kidney, non-blocked, n = 3, read-out: Tumor-to-kidney ratio",0.45 ± 0.04
same,tissue to tissue ratio,"[2]; tumor and liver, blocked with 150 nmol unlabeled NeoB, n = 1, read-out: Tumor-to-liver ratio",0.49
same,tissue to tissue ratio,"[2]; tumor and liver, non-blocked, n = 3, read-out: Tumor-to-liver ratio",0.78 ± 0.04
same,tissue to tissue ratio,"[2]; tumor and muscle, blocked with 150 nmol unlabeled NeoB, n = 1, read-out: Tumor-to-muscle ratio",3.42
same,tissue to tissue ratio,"[2]; tumor and muscle, non-blocked, n = 3, read-out: Tumor-to-muscle ratio",6.27 ± 0.44
same,tissue to tissue ratio,"[2]; tumor and pancreas, blocked with 150 nmol unlabeled NeoB, n = 1, read-out: Tumor-to-pancreas ratio",2.95
same,tissue to tissue ratio,"[2]; tumor and pancreas, non-blocked, n = 3, read-out: Tumor-to-pancreas ratio",0.72 ± 0.08
same,tissue uptake at 3 h,"[2]; blood, blocked with 150 nmol unlabeled NeoB, n = 1, read-out: Blood uptake",13.9 %ID/g
same,tissue uptake at 3 h,"[2]; blood, non-blocked, n = 3, read-out: Blood uptake",18.3 ± 2.12 %ID/g
same,tissue uptake at 3 h,"[2]; bone, blocked with 150 nmol unlabeled NeoB, n = 1, read-out: Bone uptake",2.82 %ID/g
same,tissue uptake at 3 h,"[2]; bone, non-blocked, n = 3, read-out: Bone uptake",3.05 ± 0.74 %ID/g
same,tissue uptake at 3 h,"[2]; brain, blocked with 150 nmol unlabeled NeoB, n = 1, read-out: Brain uptake",0.51 %ID/g
same,tissue uptake at 3 h,"[2]; brain, non-blocked, n = 3, read-out: Brain uptake",0.67 ± 0.28 %ID/g
same,tissue uptake at 3 h,"[2]; cecum, blocked with 150 nmol unlabeled NeoB, n = 1, read-out: Cecum uptake",2.31 %ID/g
same,tissue uptake at 3 h,"[2]; cecum, non-blocked, n = 3, read-out: Cecum uptake",5.21 ± 1.94 %ID/g
same,tissue uptake at 3 h,"[2]; heart, blocked with 150 nmol unlabeled NeoB, n = 1, read-out: Heart uptake",3.27 %ID/g
same,tissue uptake at 3 h,"[2]; heart, non-blocked, n = 3, read-out: Heart uptake",5.43 ± 0.69 %ID/g
same,tissue uptake at 3 h,"[2]; kidneys, blocked with 150 nmol unlabeled NeoB, n = 1, read-out: Kidneys uptake",18.2 %ID/g
same,tissue uptake at 3 h,"[2]; kidneys, non-blocked, n = 3, read-out: Kidneys uptake",15.4 ± 0.5 %ID/g
same,tissue uptake at 3 h,"[2]; large intestine, blocked with 150 nmol unlabeled NeoB, n = 1, read-out: Large intestine uptake",2.35 %ID/g
same,tissue uptake at 3 h,"[2]; large intestine, non-blocked, n = 3, read-out: Large intestine uptake",5.6 ± 1.44 %ID/g
same,tissue uptake at 3 h,"[2]; liver, blocked with 150 nmol unlabeled NeoB, n = 1, read-out: Liver uptake",8.93 %ID/g
same,tissue uptake at 3 h,"[2]; liver, non-blocked, n = 3, read-out: Liver uptake",8.87 ± 0.65 %ID/g
same,tissue uptake at 3 h,"[2]; lungs, blocked with 150 nmol unlabeled NeoB, n = 1, read-out: Lungs uptake",18.9 %ID/g
same,tissue uptake at 3 h,"[2]; lungs, non-blocked, n = 3, read-out: Lungs uptake",6.77 ± 1.73 %ID/g
same,tissue uptake at 3 h,"[2]; muscle, blocked with 150 nmol unlabeled NeoB, n = 1, read-out: Muscle uptake",1.28 %ID/g
same,tissue uptake at 3 h,"[2]; muscle, non-blocked, n = 3, read-out: Muscle uptake",1.1 ± 0.09 %ID/g
same,tissue uptake at 3 h,"[2]; pancreas, blocked with 150 nmol unlabeled NeoB, n = 1, read-out: Pancreas uptake",1.49 %ID/g
same,tissue uptake at 3 h,"[2]; pancreas, non-blocked, n = 3, read-out: Pancreas uptake",9.72 ± 1.63 %ID/g
same,tissue uptake at 3 h,"[2]; prostate, blocked with 150 nmol unlabeled NeoB, n = 1, read-out: Prostate uptake",1.42 %ID/g
same,tissue uptake at 3 h,"[2]; prostate, non-blocked, n = 3, read-out: Prostate uptake",3.27 ± 0.74 %ID/g
same,tissue uptake at 3 h,"[2]; small intestine, blocked with 150 nmol unlabeled NeoB, n = 1, read-out: Small intestine uptake",1.97 %ID/g
same,tissue uptake at 3 h,"[2]; small intestine, non-blocked, n = 3, read-out: Small intestine uptake",3.79 ± 0.69 %ID/g
same,tissue uptake at 3 h,"[2]; spleen, blocked with 150 nmol unlabeled NeoB, n = 1, read-out: Spleen uptake",5.05 %ID/g
